According to publication PMC11703099:

Target: SET-26::GFP, excessively sumoylated (from F2 ulp-2(tv380) or ulp-2(RNAi) animals) (C. elegans) (UniProt Q9U263)
Assay: co-IP; anti-GFP immunoprecipitation of SET-26::GFP from whole-worm lysates (1% PFA, sonicated), blot with anti-H3K4me3; WT and F2 ulp-2(tv380) backgrounds; 3 biological replicates

Chain of UniProt Q9U263 (Q9U263 whole entry): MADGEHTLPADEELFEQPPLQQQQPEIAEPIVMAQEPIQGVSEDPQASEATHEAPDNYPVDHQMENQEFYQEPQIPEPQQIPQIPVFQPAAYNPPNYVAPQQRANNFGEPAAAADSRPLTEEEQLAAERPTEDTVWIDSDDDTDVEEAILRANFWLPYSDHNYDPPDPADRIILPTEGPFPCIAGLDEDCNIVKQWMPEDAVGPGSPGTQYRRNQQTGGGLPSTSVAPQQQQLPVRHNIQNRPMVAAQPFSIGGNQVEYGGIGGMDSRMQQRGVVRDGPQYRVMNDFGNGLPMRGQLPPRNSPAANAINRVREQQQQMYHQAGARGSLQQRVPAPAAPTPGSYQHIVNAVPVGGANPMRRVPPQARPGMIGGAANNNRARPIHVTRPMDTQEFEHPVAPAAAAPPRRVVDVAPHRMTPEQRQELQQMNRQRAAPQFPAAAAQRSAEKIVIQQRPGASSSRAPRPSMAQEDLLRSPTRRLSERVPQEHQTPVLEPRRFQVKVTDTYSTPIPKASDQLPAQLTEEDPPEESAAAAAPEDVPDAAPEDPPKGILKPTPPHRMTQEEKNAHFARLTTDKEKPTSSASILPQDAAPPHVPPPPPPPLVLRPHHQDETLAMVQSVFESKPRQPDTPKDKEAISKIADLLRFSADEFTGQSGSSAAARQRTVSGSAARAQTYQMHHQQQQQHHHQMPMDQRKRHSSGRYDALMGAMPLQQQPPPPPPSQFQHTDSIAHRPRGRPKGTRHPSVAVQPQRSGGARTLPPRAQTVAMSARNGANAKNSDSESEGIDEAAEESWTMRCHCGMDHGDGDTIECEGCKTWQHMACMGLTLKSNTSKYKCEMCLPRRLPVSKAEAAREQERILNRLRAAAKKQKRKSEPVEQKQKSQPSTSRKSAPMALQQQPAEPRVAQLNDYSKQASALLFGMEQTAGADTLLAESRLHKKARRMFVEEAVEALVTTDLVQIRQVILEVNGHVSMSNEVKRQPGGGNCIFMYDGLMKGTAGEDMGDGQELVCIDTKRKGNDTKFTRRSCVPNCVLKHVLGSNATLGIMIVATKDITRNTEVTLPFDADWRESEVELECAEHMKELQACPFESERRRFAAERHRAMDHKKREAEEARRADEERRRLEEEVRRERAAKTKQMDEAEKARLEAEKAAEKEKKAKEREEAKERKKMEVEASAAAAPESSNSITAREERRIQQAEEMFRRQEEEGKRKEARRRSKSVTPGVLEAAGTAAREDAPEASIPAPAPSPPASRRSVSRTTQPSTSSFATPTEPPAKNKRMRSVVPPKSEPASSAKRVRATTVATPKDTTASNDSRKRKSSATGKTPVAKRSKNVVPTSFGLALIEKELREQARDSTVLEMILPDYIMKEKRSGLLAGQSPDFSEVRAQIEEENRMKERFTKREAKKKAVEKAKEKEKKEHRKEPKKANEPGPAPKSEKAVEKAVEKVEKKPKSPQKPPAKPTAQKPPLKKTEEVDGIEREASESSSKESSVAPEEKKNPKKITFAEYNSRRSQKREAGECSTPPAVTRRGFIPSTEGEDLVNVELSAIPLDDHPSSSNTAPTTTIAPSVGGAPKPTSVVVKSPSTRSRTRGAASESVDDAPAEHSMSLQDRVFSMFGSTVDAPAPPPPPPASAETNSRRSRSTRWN

Question: With “Histone H3 tri-methylated at lysine 4 (H3K4me3) (from UniProt P08898 1-136) (natural protein)” as the substance, how does the reduction of binding compared with WT read?
Answer: The reduction of binding compared with WT was 55%.
